From patent publication US20190330321A1 (UCB, published 2019)
Substitutions are numbered along the chain they refer to. Blank lines part the entries; values can stand above or below the binder they belong to.

How the values were obtained:
Assay in all cases: cell-based or functional assay
[1] = target: T1, mature human TGF-beta 2 (human, UniProt P61812 303-414)
T1 sequence: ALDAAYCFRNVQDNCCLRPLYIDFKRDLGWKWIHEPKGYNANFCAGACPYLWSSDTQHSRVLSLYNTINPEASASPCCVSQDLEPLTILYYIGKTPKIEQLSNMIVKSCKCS

[2] = target: T2, mature human TGF-beta 3 (human, UniProt P10600 301-412)
T2 sequence: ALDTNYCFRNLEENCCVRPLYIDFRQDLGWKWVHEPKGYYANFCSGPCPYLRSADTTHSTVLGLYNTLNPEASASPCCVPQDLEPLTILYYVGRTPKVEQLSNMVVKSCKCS

[3] = target: mature human TGF-beta 1 (human, UniProt P01137 279-390)
mature human TGF-beta 1, sequence (P01137 279-390 limits assumed): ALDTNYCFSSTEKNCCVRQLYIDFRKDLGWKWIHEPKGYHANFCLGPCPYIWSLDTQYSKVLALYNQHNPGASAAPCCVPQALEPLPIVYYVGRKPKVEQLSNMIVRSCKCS

[4] = target: endogenously produced TGF-beta (isoform not given)

IC50, Collagen I&III deposition, RPTEC and HRF co-culture, N = 1 [4]: 22.4 nM
IC50, Collagen I&III deposition, RPTEC and HRF co-culture, N = 2 [4]: 48 nM
IC50, Collagen V deposition, RPTEC and HRF co-culture, N = 1 [4]: 38.9 nM
IC50, Collagen V deposition, RPTEC and HRF co-culture, N = 2 [4]: 81.6 nM
IC50, Fibronectin deposition, RPTEC and HRF co-culture, N = 1 [4]: 32.6 nM
IC50, Fibronectin deposition, RPTEC and HRF co-culture, N = 2 [4]: 27.1 nM
IC50 Geo Mean, Collagen I&III deposition, RPTEC and HRF co-culture [4]: 32.8 nM
IC50 Geo Mean, Collagen V deposition, RPTEC and HRF co-culture [4]: 56.3 nM
IC50 Geo Mean, Fibronectin deposition, RPTEC and HRF co-culture [4]: 29.7 nM
IC50 geometric mean, BxPC3 and HEK-Blue TGF-beta co-culture assay [4]: 3.95 nM
B3: antibody 4856 gL3gH13 Fab (humanised) (Fab)
heavy: EVQLVESGGGLVKPGGSLRLSCAASGFSLSSYDMSWVRQAPGKGLEWIGIIYGGSGSTWYASWAKGRFTISRDSAKNSVYLQMNSLRAEDTAVYYCARGRDAGAGGSRNGYSLWGQGTLVTVSSASTKGPSVFPLAPSSKSTSGGTAALGCLVKDYFPEPVTVSWNSGALTSGVHTFPAVLQSSGLYSLSSVVTVPSSSLGTQTYICNVNHKPSNTKVDKKVEPKSC
light: AYDMTQSPSTLSASVGDRVTITCQASESIYSGLAWYQQKPGKAPKLLIYAASDLASGVPSRFSGSGSGTEYTLTISSLQPDDFATYYCQQTWTDGGIDNPFGGGTKVEIKRTVAAPSVFIFPPSDEQLKSGTASVVCLLNNFYPREAKVQWKVDNALQSGNSQESVTEQDSKDSTYSLSSTLTLSKADYEKHKVYACEVTHQGLSSPVTKSFNRGEC

IC50 geometric mean, BxPC3 and HEK-Blue TGF-beta co-culture assay [4]: 4.63 nM
B5: antibody 4856 gL3gH20 Fab (humanised) (Fab)
heavy: B3 heavy with G49S, I70M, R72K
light: B3 light

IC50 geometric mean, BxPC3 and HEK-Blue TGF-beta co-culture assay [4]: 9.1 nM
B6: antibody 4856 gL3gH23 Fab (humanised) (Fab)
heavy: B3 heavy with G110A
light: B3 light

The remaining lines, values behind:

B1: 4856 rabbit Fab (Fab, V domains shown)
VH: QSLEESGGRLVTPGTPLTLTCTASGFSLSSYDMSWVRQAPGKGLEWIGIIYGGSGSTWYASWAKGRFTMSKTSTTVDLKITSPTTEDMATYFCARGRDGGAGGSRNGYSLWGQGTLVTVSS
VL: AYDMTQTPASVEVAVGGTVTIKCQASESIYSGLAWYQQTPGQRPKLLIYAASDLASGVPSRFKGSGSGTEYTLTISGVECADAATYYCQQTWTDGGIDNPFGGGTEVVVKR
Geomean IC50, HEK-Blue TGF-beta reporter gene assay [1]: 0.3 not clear (head says nM)
Geomean IC50, HEK-Blue TGF-beta reporter gene assay [2]: 24.5 not clear (head says nM)
Geomean IC50, HEK-Blue TGF-beta reporter gene assay [3]: 1.77 not clear (head says nM)

B2: 4856 rabbit Fab (Fab)
heavy: QSLEESGGRLVTPGTPLTLTCTASGFSLSSYDMSWVRQAPGKGLEWIGIIYGGSGSTWYASWAKGRFTMSKTSTTVDLKITSPTTEDMATYFCARGRDGGAGGSRNGYSLWGQGTLVTVSSGQPKAPSVFPLAPCCGDTPSSTVTLGCLVKGYLPEPVTVTWNSGTLTNGVRTFPSVRQSSGLYSLSSVVSVTSSSQPVTCNVAHPATNTKVDKTV
light: AYDMTQTPASVEVAVGGTVTIKCQASESIYSGLAWYQQTPGQRPKLLIYAASDLASGVPSRFKGSGSGTEYTLTISGVECADAATYYCQQTWTDGGIDNPFGGGTEVVVKRTPVAPTVLIFPPAADQVATGTVTIVCVANKYFPDVTVTWEVDGTTQTTGIENSKTPQNSADCTYNLSSTLTLTSTQYNSHKEYTCKVTQGTTSVVQSFNRGDC
Geomean IC50, BxPC3-HEK-Blue TGF-beta reporter gene co-culture assay [4]: 3.7 nM

B4: antibody 4856 gL3gH29 Fab (humanised) (Fab)
heavy: B3 heavy with N109D
light: B3 light
IC50 geometric mean, BxPC3 and HEK-Blue TGF-beta co-culture assay [4]: 3.77 nM
